From the nanobody polyreactivity screen of Harvey et al. (2022)

Experiment: yeast display, Sf9 membrane polyspecificity reagent, FACS + sequencing; frameworks hold sequencing errors
Outline: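 Using colony PCR, genes from sorted yeast display clones were amplified, then sequenced on MiSeq at 2 × 250 and filtered by CDR length. The clones had been stained with 10% biotinylated, detergent-solubilized Sf9 membrane reagent for 1 hour at 4 °C and sorted by FACS into low and high (top ~1%) gates on anti-HA and streptavidin fluorescence. Polyreactivity labels come from the gate of origin.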

Row | Sequence | polyreactivity (PSR sort gate)
1 | QVQLVESGGGLVQAGGSLRLSCAASGRTFYGYAMGWYRQAPGKERELVAAISKRGGSTYYADSVKGRFTISRDNAKNTVYLQMNSLKPEDTAVYYCARPYLGPYSGYDYNYWGQGTQVTVSS | high polyreactivity
2 | QVQLVESGGGLVQAGGSLRLSSAASGSIFARYAMGWYRPAPVKERELVAAISGRGGSTYYADSVKGRFTISRDNAKNTVYLQMNSLKPEDTAVYYCNAVGHTSIRRALDILDYWGQGPQVTVSS | high polyreactivity
3 | QVQHVESGGGVVQAVGSLRLSCAASGYIFRTNAMGWYRQARGKERELVAAITRSGGRTYYADSVKGRFTISRDNAKNTVYLQMNSLKPEDTAVYYCAAGGRKPVITGDYWGQGTQVTVSS | high polyreactivity
4 | QDQLVESGGGLVQAGGSLRLSCAASGFTFHNNVMGWYRQAPGKERELVATISKSGGSTYYADSVKGRITISRDNAKNTVYLQMNSLKPEDTAVYYCARRYRDYGRYGYWGQGTQVTVSS | high polyreactivity
5 | QVQLVESGGGLVQAGGSLRLSCAASGSIFYSYAMGWYRQAPGKERELVASISDGSSTYADSVKGRFTISRDNAKNTVYLQMNSLKPEDTAVYYCNADATDSYPEKDEHDSWGQGTQVTVSS | low polyreactivity
6 | QVQLVESGGGLVQAGGSLRLSCAASGRTFYPSAMGWYRQAPGKERQLVAAITTSGGRTYYADSVKGRFTISRDNAKNTVYLQMNSLKPEDTAVYYCAKAYREGEGKFDYWGQGTQVTVSS | high polyreactivity
7 | QVQLVESGGGLVQAGGSLRLSCAASGRISRVYAMGWYRQAPGKERELVAAITSSGGSTYADSVKGRFTISRDNAKNTVYLQMNSLKPEDTAVYYCAADSYWYRFLKSRYDYWGQGTQVTVSS | low polyreactivity
8 | QVQLVESGGGLVQAGGSLRLSCAASGSIFSRNAMGWYRQAPGKEREFVARISWSSTSTNYADSVKGRFTISRDNAKNTVYLQMNSLKPEDTAVYYCAADFRGDRRFDYWGQGTQVSVSS | low polyreactivity
9 | QVQLVDSGGGLVQAGGSLRLSCPASGGIFGEYAMGWYRPAPGKEMELVAAINWSGGSTYYADSVKGRFTISRDNAKNTVYLQMNSLKPEDTAVYYCAADRGYPGNVDYWGQGSQVTVSS | low polyreactivity
10 | QVQLVESGGGLVQAGGSLRLSCAASGFIFNTMGWYRQARGKERELVARITRGGSTDYADSVKGRFTISRDNAKNTVYLQMNSLKPEDTAFYYCAAAIGHFERFYWGQGTQVTVSS | low polyreactivity
11 | QVQLVESGGGLVQAGGSLRLSCAASGRTFGGNAMGWYRQAPGKERELVAAISGRGGSTYYADSVKGRFTISRDNAKNTVYLQMNSLKPEDTAVYYCAARSYLTPEYYYWGQGTQVTVSS | high polyreactivity
12 | QVQLVESGAGLVQAGGSLRLSSAASGLTFQTYAMGCYRQAPGKEREYVATISNGSSTYYADSVKGRFTISRDNAKNTVYFQMNILKPEDTAVYYCAKDYYYSRNQLYGHDYWGQGPQVTVSS | low polyreactivity
13 | QVQLVESGGGLVQAGGSLRLSCAASGYIFPSYAMGWYRQAPGKERELVAAISESGGSTNYSDSVKGRFTISRDYAKNTVYLQLNSLKPEDTAVYYCAAGYYTVPPDMNSWGQGTQVTVSS | low polyreactivity
14 | QVQLEESGGGLVQAGGSLRLSCAASGSILIYNAMGLYRQATGKERELVAGISRRGASTYYADSVKGRFTISRDYAKNTVYLQMNSLKPEDTAVYYCATRKLRTRGYDYGYWGQGTQVTVSS | low polyreactivity
15 | QVQLVESGGGLVQAGGSLRLSCAASGSTFDPKAMGWYRQAPGKERELVAAISYTGGRTYYADSVKGRFTISRDNAKNTVYLQMNSLKPEDTAVYYCAVLVVGSTTQDEPYFSGVEHDYWGQGTQVTVSS | low polyreactivity
16 | QVQLVESGGGLVQAGGSLRLSCAASGRTFYVYAMGWYRQAPGKERELVAAISWSGGSTYYADSVKGRFTISRDNAKNTVYLQMNSLKPEDTAVYYCAAQTYQRHVVAYDYWGQGTQVTVSS | low polyreactivity

Row | Sequence | polyreactivity (PSR sort gate)
17 | QVQIVESGGGLVQAGGSLRLRCAASGLTFYVYVMGWYRQAPGKEREFVAAISYDGDSTYYADSVKGRFTISRDNAKNTVFFQMNSLIAEDTAVYYCNADRYPYWGYDYWGQGTQVTVSS | low polyreactivity
18 | QVQLQESGGGLVQAGGSLRLSCAASGHISIKLQRGWYRAAPGKERELVATINLGAITYYADSVKGLITNSRDNAKNTVYLQLNSLKPEDTAVYYCAARWRSGFTSGDYWGQGTQVTVSS | low polyreactivity
19 | QVQLVESGGGLVQAGGSLRLSSAASGSTFGIYAMGWYRQAPGKERELVAAISSGGSTNYADSVKGRFTISRDNAKNTVYLQMNSLKPEDTAVYYCAVESVYEYGGYVDSAFDYWGQGTQVTVSS | low polyreactivity
20 | QVQLVESGGGLVQAGGSLRLSCAASGRIFRYNAMGWSRQAPGKERELVAAISRRGGTTYYADSVKGRFTISRDNAKNTVYLQMNSLKPEDTAVYDCAAQYRQRRHDYWGQGTQVTVSS | high polyreactivity
21 | QVQLVESGGGLVQAGGSLRLSCAASGIIFDWYAMGWYRQAPGTERELVAAISDSGDTTYYADSVKGRFTISRDNAKNTVYLQMNSLNPEDTAVYYCAARWEYVGYRRRYYRFDYWGQGTQVTVSS | high polyreactivity
22 | QVQLVESGGALVQAGGSLRLSCAASGSTFDDNAMGWYRQAPGKERELVASITYRGGSTYYADSVKGRFTISRDNAKNTVYLQMNSLKPEDTAVYYCAKGHYFKYDYWGQGTQVTVSS | low polyreactivity
23 | QVQLVESGGGLVQAGGSLRLSCAASGSTIWIYAMGWYRQAPGKERELVAAINWSGGNTYYADSVKGRFTISRDNAKNTVYLQMNSLKPEDTAVYYCAAAFYIYGVEGDYWGQGTQVTVSS | low polyreactivity
24 | QVLLQESGAGLVQAGGSLRLSCAASGTISTDIRMGWYRLAPGKEREFVASIDGCSTTYYADSVKGRFTISRDNAKNSVYLQLNSLKPEDTAMYYCAAREDTEFYLYYWGQGNQVTVSS | low polyreactivity
25 | QVQLVESAAGLVQAGGSLRLSCDASGSIFYSYAMGWYRQAPGKERELVAAITDSGDSTYYADCVKGRFTISRDNAKNTVYLQMNSLKPEDTAVYYCAAGFYPYYYWGQGTQVTVSS | low polyreactivity
26 | QVQLVESGGGLVQAGGSLRLSCAASGSIFWSNAMGWYRQAPGKEREFVAAITWSGDNTYYADSVKGRFTISRDNAKNTVYLQMNSLKPEDTAVYYCNTEWGLFYDWTVLHIYLHGYYYWGQGTQVTVSS | low polyreactivity
27 | QVQLVESGGGLVQAGGSLRLSCAASGSIFTYYAMGWYRQAPGKERELVADIRWSGGSTYYADSVKGRFTISRDNAKNTVYLQMNSLKPEDTAVYFCNARYYSYWPIYNFDYWGQGTQVTVSS | low polyreactivity
28 | QVQLVESGGGLVQAGGSLRLSCAASGSIFDPYAKGWYRQAPGKEREFVAAITGSGGSTSYADSVKGRFTISRDNAKNTVYLQMNSLKPEDTAVYYCAARRTVEWGQGTQVTVSS | high polyreactivity
29 | QVQLVESGGGLVQAGGSLRLSCAASGFTFAYYAMGWYRQAPGKERELVASITSGGSTYYADSVKGRFTISRDNAKNTVYLQMNSLKPEATAVYYCAARVRSELIKRYYWGQGTQVTVSS | high polyreactivity
30 | QVQLVESGGGLVQAGGSLRLSCAASGRTFWYYAMGWYRQAPGKAREWVATISYRGGSTYYADSVKGRFTISRDNAKNTVNLQMNSLKPEDTAVYYCAAKQWWGGRPKVDYWGQGTQVTVSS | high polyreactivity
31 | QVQLVESGGGLVQAGGSLRLSFPASGSTYFTYAMGWYRQAPGKERELVAAISWSGGTTYYADSVKGRFTISRDNAKNTVYLQMNSLKPEDTAVYYCASDRAGILKANDYWGKGTQVTVSS | low polyreactivity
32 | QVQLVESGGGLVQAGGSLRLSCAASGIILYPYAMGWYRQAPGKERELVAAISWSGGSTYYADSVKGRFTISRDNAKNTVYLQMNSLKPEDTAVYYCAARPRRRYYGYDSWGQGTQVTVSS | high polyreactivity
